Patent US20240166767A1 (SCIRHOM, published 2024)

T1: endogenous human iRhom2 (human, UniProt Q6PJF5 1-856)
T1 sequence: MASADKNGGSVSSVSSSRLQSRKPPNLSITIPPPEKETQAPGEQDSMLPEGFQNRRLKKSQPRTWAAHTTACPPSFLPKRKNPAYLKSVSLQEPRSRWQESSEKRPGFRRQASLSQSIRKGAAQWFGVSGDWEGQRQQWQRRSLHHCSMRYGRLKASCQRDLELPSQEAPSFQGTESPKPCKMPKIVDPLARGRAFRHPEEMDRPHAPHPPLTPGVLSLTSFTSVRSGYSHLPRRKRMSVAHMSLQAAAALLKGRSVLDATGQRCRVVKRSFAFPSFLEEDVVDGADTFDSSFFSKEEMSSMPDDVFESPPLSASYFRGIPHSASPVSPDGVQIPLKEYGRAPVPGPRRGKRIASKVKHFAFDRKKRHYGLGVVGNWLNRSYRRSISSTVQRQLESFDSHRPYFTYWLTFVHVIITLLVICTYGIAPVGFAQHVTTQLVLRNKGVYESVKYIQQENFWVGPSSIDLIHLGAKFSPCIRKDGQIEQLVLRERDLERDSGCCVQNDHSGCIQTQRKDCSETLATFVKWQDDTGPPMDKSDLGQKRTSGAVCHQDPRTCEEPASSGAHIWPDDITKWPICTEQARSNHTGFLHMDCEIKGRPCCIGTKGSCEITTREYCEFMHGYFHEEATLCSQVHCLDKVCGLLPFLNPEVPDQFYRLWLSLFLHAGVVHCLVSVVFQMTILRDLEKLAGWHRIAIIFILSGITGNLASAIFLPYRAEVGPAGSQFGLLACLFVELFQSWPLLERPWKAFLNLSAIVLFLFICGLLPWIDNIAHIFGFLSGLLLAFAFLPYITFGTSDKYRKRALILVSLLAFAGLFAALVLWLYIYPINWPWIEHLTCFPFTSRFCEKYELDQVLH

T2: human iRhom2 full length wild type C-terminally tagged with 3 consecutive copies of the T7 epitope (UniProt Q6PJF5 1-856)
T2 chain: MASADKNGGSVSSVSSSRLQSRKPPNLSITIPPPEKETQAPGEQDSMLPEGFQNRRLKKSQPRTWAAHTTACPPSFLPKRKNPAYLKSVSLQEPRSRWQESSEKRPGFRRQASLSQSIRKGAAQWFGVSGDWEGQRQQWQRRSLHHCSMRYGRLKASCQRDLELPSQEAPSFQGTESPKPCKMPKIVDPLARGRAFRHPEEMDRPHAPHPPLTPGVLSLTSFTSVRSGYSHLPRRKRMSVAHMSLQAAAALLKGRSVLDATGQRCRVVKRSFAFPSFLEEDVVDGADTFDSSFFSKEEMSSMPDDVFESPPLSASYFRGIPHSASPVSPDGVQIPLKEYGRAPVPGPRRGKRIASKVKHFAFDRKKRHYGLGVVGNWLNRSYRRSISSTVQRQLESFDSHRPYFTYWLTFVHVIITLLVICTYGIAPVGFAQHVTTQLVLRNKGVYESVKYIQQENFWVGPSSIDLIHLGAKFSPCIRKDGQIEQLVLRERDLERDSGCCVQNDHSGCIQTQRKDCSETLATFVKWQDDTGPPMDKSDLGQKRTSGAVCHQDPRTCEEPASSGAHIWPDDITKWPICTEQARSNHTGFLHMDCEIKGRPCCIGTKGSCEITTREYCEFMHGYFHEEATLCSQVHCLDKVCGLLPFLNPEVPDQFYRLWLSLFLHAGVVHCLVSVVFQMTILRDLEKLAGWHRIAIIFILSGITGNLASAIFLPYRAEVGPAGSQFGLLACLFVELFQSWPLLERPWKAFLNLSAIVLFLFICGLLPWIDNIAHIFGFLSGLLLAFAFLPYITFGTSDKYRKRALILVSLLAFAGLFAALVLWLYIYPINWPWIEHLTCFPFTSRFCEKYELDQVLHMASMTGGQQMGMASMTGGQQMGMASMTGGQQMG


Key:
endogenous human iRhom2 = biological target: T1, endogenous human iRhom2; test: cell-based or functional assay
[1] = biological target: T2, human iRhom2 full length wild type …; test: FACS Scatchard

Row | Binder | percent inhibition of LPS-induced release of TNFα from PBMCs from healthy donors (ELISA, antibody 3 µg/ml) (endogenous human iRhom2) | percent inhibition of LPS-induced release of TNFα from THP-1 cells (ELISA, antibody 3 µg/ml) (endogenous human iRhom2) | percent inhibition of PMA-induced release of HB-EGF from PBMCs from healthy donors (ELISA, antibody 3 µg/ml) (endogenous human iRhom2) | percent inhibition of PMA-induced release of HB-EGF from THP-1 cells (ELISA, antibody 3 µg/ml) (endogenous human iRhom2) | percent inhibition of PMA-induced release of HB-EGF from U-937 cells (ELISA, antibody 3 µg/ml) (endogenous human iRhom2) | percent inhibition of PMA-induced release of IL-6R from PBMCs from healthy donors (ELISA, antibody 3 µg/ml) (endogenous human iRhom2) | percent inhibition of PMA-induced release of IL-6R from THP-1 cells (ELISA, antibody 3 µg/ml) (endogenous human iRhom2) | percent inhibition of PMA-induced release of IL-6R from U-937 cells (ELISA, antibody 3.33 µg/ml) (endogenous human iRhom2) | percent inhibition of PMA-induced release of TGFα from PC3 cells (ELISA, antibody 10 µg/ml) (endogenous human iRhom2) | percent inhibition of PMA-induced release of TNFα from U-937 cells (ELISA, antibody 3.33 µg/ml) (endogenous human iRhom2) | Kd [1]
1 | humanized antibody 42-B-04 (antibody, V domains shown, Tested as whole humanized antibody produced in CHO cells and detected with anti-human IgG; the general methods speak of human IgG1/Kappa; also called clone 42-B-04) VH: QVTLRESGPALVKPTQTLTLTCTFSGFSLSTFGRGVGWIRQPPGKALEWLAHIWWDDEKYYNSALKSRLTISKDTSKNQVVLTITNMDPVDTATYYCARIQNYGSNYWYFDVWGQGTLVTVSS VL: AIQLTQSPSSLSASVGDRVTITCRASSRISYMFWYQQKPGKAPKVLIYDTSNLASGVPSRFSGSGSGTDYTLTISSLQPEDFATYYCQQWNAYPLTFGQGTKLEIK | 68.5% | 76.1% | 66.7% | 86.2% | 99.4% | 78.4% | 71.6% | 82.4% | 19.5% | 87.9% | 0.48 nM
2 | humanized antibody 23-B-04 (antibody, V domains shown, Tested as whole humanized antibody produced in CHO cells and detected with anti-human IgG; the general methods speak of human IgG1/Kappa; also called clone 23-B-04) VH: QVTLRESGPALVKPTQTLTLTCTFSGFSLSTFGMGVGWIRQPPGKALEWLAHIWWDDEKYYNSALKSRLTISKDTSKNQVVLTITNMDPVDTATYYCARISNYGSNYWYFNVWGQGTLVTVSS VL: AIQLTQSPSSLSASVGDRVTITCRASSSVSYMYWYQQKPGKAPKVLIYDTSNLASGVPSRFSGSGSGTDYTLTISSLQPEDFATYYCQQWNAYPLTFGQGTKLEIK | 59.4% | 77.6% | 49.6% | 84.4% | 99.5% | 64.6% | 70.1% | 77.8% | 21.3% | 77.2% | 0.58 nM
3 | humanized antibody 42-B-02 (antibody, V domains shown, Tested as whole humanized antibody from transient expression of heavy chain/kappa light chain pairs in CHO cells, detected with anti-human IgG; the general methods speak of human IgG1/Kappa; also called clone 42-B-02) VH: QVTLRESGPALVKPTQTLTLTCTFSGFSLSTFGRGVGWIRQPPGKALEWLAHIWWDDEKYYNSALKSRLTISKDTSKNQVVLTITNMDPVDTATYYCARIQNYGSNYWYFDVWGQGTLVTVSS VL: AIQLTQSPSSLSASVGDRVTITCRASSRISYMFWYQQKPGKAPKVLIYDTSNLASGVPSRFSGSGSGTDYTLTISSLQPEDFATYYCQQWNSYPLTFGQGTKLEIK | 64.3% | 75.2% | 59.2% | 81.2% | 98.8% | 73.4% | 68.5% | 78.3% | 6.4% | 85% | 0.5 nM
4 | humanized antibody 16-B-07 (antibody, V domains shown, Tested as whole humanized antibody produced in CHO cells and detected with anti-human IgG; the general methods speak of human IgG1/Kappa; also called clone 16-B-07) VH: QVTLRESGPALVKPTQTLTLTCTFSGFSLSTFALGVGWIRQPPGKALEWLAHIWWDEDKYYNPALKSRLTISKDTSKNQVVLTITNMDPVDTATYYCARITTYYYGMDYWGQGTLVTVSS VL: EIVMTQSPDFQSVTPKEKVTITCRASQSIGNHLHWYQQKPDASPKLLIKYASQSISGVPSRFSGSGSGTDFTLTINSLEAEDAATYFCQQSYQWPLTFGQGTKLEIK | 72.8% | 77.2% | 66.5% | 80.5% | 99.2% | 75.4% | 75.6% | 77.5% | 3.3% | 90.3% | 0.99 nM
5 | humanized antibody 16-B-03 (antibody, V domains shown, Tested as whole humanized antibody produced in CHO cells and detected with anti-human IgG; the general methods speak of human IgG1/Kappa; also called clone 16-B-03) VH: QVTLRESGPALVKPTQTLTLTCTFSGFSLSTFALGVGWIRQPPGKALEWLAHIWWDDDKYYNPALKSRLTISKDTSKNQVVLTITNMDPVDTATYYCARITTYYYGMDYWGQGTLVTVSS VL: EIVMTQSPDFQSVTPKEKVTITCRASQSIGNHLHWYQQKPDASPKLLIKYASQSISGVPSRFSGSGSGTDFTLTINSLEAEDAATYFCQQSYQWPLTFGQGTKLEIK | 74.2% | 75.1% | 69.7% | 80.2% | 99.2% | 75% | 75.6% | 79.6% | 15.9% | 89.8% | 0.67 nM
6 | humanized antibody 16-B-05 (antibody, V domains shown, Tested as whole humanized antibody produced in CHO cells and detected with anti-human IgG; the general methods speak of human IgG1/Kappa; The printed LCVD reads SRESGSG where the printed cDNA encodes SRFSGSG; also called clone 16-B-05) VH: QVTLRESGPALVKPTQTLTLTCTFSGFSLSTFALGVGWIRQPPGKALEWLAHIWWDEDKYYNPALKSRLTISKDTSKNQVVLTITNMDPVDTATYYCARITTYYYGMDYWGQGTLVTVSS VL: EIVMTQSPDFQSVTPKEKVTITCRASQSIGNHLHWYQQKPDASPKLLIKYASQSISGVPSRFSGSGSGTDFTLTINSLEAEDAATYFCQQSYNWPLTFGQGTKLEIK | 73.5% | 78.7% | 74.8% | 83% | 99.7% | 79% | 74% | 81.7% | 23.8% | 89% | 1.07 nM
